B1: Rho guanine nucleotide exchange factor 7 (Homo sapiens), Q14155 (parent)
chain: MNSAEQTVTWLITLGVLESPKKTISDPEGFLQASLKDGVVLCRLLERLLPGTIEKVYPEPRSESECLSNIREFLRGCGASLRLELLFPPSQPPQHLVTTILLSASTFDANDLYQGQNFNKVLSSLVTLNKVTADIGLGSDSVCARPSSHRIKSFDSLGSQSLHTRTSKLFQGQYRSLDMTDNSNNQLVVRAKFNFQQTNEDELSFSKGDVIHVTRVEEGGWWEGTLNGRTGWFPSNYVREVKASEKPVSPKSGTLKSPPKGFDTTAINKSYYNVVLQNILETENEYSKELQTVLSTYLRPLQTSEKLSSANISYLMGNLEEICSFQQMLVQSLEECTKLPEAQQRVGGCFLNLMPQMKTLYLTYCANHPSAVNVLTEHSEELGEFMETKGASSPGILVLTTGLSKPFMRLDKYPTLLKELERHMEDYHTDRQDIQKSMAAFKNLSAQCQEVRKRKELELQILTEAIRNWEGDDIKTLGNVTYMSQVLIQCAGSEEKNERYLLLFPNVLLMLSASPRMSGFIYQGKLPTTGMTITKLEDSENHRNAFEISGSMIERILVSCNNQQDLQEWVEHLQKQTKVTSVGNPTIKPHSVPSHTLPSHPVTPSSKHADSKPAPLTPAYHTLPHPSHHGTPHTTINWGPLEPPKTPKPWSLSCLRPAPPLRPSAALCYKEDLSKSPKTMKKLLPKRKPERKPSDEEFASRKSTAALEEDAQILKVIEAYCTSAKTRQTLNSTWQGTDLMHNHVLADDDQPSLDSLGRRSSLSRLEPSDLSEDSDYDSIWTAHSYRMGSTSRKSCCSYISHQN

Variants of: B1
Conditions: with rac1_human RAC1, P63000

**Q.** Which “effect of a mutation on the interaction” value does the source give for P340E here?
**A.** Its value is “increasing interaction”.

— IntAct's records for PubMed 24792722
